Results taken from publication PMC6497050.
Where two headings read alike, the source gives them in different places.

Legend:
importin α7 [1] = target: importin α7 (UniProt O60684); experiment: fluorescence polarisation
importin α7 [2] = target: importin α7 (UniProt O60684); experiment: fluorescence polarisation; remark: listed apart in the source

wild type LANS (Light Activated Nuclear Shuttle) (from UniProt O49003 404-546) (designed binder)
Kd (importin α7 [1]): 30.4 µM
Kd (importin α7 [2]): 1.3 µM
